Results: patent publication US20250092426, “CAS ENDONUCLEASES AND RELATED METHODS” (Flagship Pioneering Innovations VII, LLC, published 2025)

Target: T1, CasEnd-14 (synthetic construct)
T1 chain: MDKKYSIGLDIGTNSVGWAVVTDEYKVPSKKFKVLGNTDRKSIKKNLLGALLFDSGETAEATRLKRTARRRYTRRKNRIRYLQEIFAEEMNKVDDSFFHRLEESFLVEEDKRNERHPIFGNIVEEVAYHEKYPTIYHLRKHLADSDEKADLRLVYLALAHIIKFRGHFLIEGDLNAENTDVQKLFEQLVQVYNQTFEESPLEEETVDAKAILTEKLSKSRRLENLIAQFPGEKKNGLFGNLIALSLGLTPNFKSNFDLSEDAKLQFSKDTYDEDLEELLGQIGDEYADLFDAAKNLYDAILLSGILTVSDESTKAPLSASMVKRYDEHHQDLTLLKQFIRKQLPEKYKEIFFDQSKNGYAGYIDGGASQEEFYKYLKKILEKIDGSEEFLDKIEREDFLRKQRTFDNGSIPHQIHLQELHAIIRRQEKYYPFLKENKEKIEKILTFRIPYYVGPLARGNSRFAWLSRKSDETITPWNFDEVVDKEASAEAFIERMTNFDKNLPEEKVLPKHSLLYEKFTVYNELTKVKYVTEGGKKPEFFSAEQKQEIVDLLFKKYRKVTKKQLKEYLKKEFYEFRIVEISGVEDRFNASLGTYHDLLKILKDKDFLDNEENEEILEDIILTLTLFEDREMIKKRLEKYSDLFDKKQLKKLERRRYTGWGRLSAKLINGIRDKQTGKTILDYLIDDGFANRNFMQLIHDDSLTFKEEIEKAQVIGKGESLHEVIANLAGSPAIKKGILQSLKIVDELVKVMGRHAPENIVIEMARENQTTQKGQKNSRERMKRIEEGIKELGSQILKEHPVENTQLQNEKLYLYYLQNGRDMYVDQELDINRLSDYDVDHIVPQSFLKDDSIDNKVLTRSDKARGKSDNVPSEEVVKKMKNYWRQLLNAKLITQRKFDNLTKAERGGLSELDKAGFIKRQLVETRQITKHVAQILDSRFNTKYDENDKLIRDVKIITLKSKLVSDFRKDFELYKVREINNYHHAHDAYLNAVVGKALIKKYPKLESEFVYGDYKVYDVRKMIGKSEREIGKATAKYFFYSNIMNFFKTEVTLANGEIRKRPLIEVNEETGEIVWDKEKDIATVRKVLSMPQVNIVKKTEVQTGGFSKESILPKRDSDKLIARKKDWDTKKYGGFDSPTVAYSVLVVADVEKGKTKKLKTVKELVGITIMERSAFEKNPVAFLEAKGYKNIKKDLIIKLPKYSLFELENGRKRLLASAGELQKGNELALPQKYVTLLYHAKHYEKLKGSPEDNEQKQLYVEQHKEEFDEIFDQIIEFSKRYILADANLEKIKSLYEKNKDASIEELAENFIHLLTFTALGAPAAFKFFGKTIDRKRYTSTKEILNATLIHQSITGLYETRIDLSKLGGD
Assay: cell_activity; +++; HEK293T; PAM not stated
Description: The ability of the candidate endonucleases, including endonucleases 1-38 (CasEnds 1-38) (set forth in Table 1 and SEQ ID NOS: 1-38, respectively), to mediate target nucleic acid editing was assessed utilizing a blue fluorescent protein (BFP) to green fluorescent protein (GFP) conversion assay, wherein programmed nucleotide editing of the BFP gene was measured by the expression of GFP (signifying the conversion of […] via the programmed nucleotide edit in the BFP gene). The conversion assay was conducted utilizing the reverse transcriptase-based system (as described above in Example 2) comprising a template RNA (designed to convert BFP to GFP) and a fusion protein comprising a retroviral reverse transcriptase and the individual subject Cas endonuclease. The amino acid sequence of the base portion of the fusion protein (without the individual subject Cas endonuclease) is set forth in Table 7 (SEQ ID NO: 43).
Briefly, 200 ng of plasmid DNA encoding the subject fusion protein (containing one of the subject CasEnds) and 200 ng of template RNA (in plasmid format) were added to 25 μL SF buffer containing 250,000 HEK293T BFP-expressing cells. Nucleofection was mediated utilizing program DS-150. The day of nucleofection was marked as day 0. At day 4, the cells were harvested and analyzed by flow cytometry to assess the level of BFP and GFP expression in HEK293T cells. Cells having GFP signal were defined as having undergone a successful editing event, and the percent of cells that were GFP+ on day 4 was used to determine the performance of each Cas endonuclease.

B1: BFP-to-GFP template RNA ; BFP reporter protospacer (ssRNA ; dsDNA)
RNA: GCCGAAGCACUGCACGCCGUGUUUUAGAGCUAGAAAUAGCAAGUUAAAAUAAGGCUAGUCCGUUAUCAACUUGAAAAAGUGGCACCGAGUCGGUGCACCCUGACGUACGGCGUGCAGUGCUU
DNA 1: GCCGAAGCACTGCACGCCGT
DNA 2: ACGGCGTGCAGTGCTTCGGC
For B1, the activity was ≥ 100 % of reference.
